Test results reported in US20240287484.

Columns and labels:
Conditions in all cases: qPCR; 3 mM MgCl2, 37 C
[1] = tested on: MG167-5 RT (uncultivated organism (metagenomic))
[2] = tested on: T1, MG167-3 RT (uncultivated organism (metagenomic))
T1 sequence: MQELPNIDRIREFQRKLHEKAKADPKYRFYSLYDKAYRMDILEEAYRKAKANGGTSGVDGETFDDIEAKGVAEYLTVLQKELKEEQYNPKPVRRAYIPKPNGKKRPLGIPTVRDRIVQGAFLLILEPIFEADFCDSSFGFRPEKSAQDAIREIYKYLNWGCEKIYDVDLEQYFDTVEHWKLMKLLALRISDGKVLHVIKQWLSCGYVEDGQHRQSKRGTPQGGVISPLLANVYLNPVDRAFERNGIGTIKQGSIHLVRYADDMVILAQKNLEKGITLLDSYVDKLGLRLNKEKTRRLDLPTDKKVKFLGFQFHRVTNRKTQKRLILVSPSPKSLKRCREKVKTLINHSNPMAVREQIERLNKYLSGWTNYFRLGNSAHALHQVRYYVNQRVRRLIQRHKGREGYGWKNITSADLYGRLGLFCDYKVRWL

[3] = tested on: T2, MG165-8 RT (uncultivated organism (metagenomic))
T2 sequence: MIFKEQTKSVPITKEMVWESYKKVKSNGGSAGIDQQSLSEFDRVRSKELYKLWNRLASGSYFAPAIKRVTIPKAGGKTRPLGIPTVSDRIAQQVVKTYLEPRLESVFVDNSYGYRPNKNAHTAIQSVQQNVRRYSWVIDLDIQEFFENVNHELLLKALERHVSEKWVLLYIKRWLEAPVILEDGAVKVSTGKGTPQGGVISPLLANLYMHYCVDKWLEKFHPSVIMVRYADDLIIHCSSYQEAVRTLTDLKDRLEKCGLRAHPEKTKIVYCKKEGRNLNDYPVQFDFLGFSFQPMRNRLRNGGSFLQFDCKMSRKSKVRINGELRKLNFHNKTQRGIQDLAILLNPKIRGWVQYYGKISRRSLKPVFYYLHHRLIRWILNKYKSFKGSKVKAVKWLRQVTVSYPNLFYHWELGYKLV

[4] = tested on: T3, MG165-6 RT (uncultivated organism (metagenomic))
T3 sequence: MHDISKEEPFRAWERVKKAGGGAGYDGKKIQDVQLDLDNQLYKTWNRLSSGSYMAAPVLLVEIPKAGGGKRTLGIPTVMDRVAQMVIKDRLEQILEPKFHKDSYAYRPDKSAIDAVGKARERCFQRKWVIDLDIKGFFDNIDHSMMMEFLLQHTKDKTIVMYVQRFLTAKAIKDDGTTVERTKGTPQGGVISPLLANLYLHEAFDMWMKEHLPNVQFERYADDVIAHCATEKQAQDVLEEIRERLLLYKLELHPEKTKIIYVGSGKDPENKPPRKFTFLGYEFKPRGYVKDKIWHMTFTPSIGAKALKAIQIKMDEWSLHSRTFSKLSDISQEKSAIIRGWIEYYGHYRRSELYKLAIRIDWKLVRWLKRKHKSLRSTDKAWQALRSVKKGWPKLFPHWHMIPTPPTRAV

[5] = tested on: T4, MG165-4 RT (uncultivated organism (metagenomic))
T4 sequence: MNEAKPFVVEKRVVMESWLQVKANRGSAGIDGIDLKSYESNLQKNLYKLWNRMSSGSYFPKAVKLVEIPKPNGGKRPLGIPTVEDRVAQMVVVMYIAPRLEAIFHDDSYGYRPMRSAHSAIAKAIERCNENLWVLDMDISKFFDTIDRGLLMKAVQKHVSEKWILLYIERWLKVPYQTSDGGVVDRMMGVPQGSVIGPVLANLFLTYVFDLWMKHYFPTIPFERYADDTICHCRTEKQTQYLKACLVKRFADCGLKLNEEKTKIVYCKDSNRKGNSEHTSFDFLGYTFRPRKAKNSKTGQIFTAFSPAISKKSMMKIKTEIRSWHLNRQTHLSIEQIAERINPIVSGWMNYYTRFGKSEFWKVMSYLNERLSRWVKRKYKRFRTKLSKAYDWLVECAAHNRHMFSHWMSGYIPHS

[6] = tested on: T5, MG153-11 RT (uncultivated organism (metagenomic))
T5 sequence: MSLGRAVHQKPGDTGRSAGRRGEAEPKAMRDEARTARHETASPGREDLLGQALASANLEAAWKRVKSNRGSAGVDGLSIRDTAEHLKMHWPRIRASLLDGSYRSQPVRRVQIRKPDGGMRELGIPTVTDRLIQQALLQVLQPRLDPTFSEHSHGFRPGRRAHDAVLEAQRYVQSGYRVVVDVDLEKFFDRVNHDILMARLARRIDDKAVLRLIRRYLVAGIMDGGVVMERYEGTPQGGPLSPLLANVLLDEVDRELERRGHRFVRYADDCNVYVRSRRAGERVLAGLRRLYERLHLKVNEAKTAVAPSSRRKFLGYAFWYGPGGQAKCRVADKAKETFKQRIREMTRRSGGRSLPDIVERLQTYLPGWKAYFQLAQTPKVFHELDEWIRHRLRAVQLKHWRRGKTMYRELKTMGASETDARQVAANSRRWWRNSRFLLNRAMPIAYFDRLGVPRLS

[7] = tested on: T6, MG153-47 RT (uncultivated organism (metagenomic))
T6 sequence: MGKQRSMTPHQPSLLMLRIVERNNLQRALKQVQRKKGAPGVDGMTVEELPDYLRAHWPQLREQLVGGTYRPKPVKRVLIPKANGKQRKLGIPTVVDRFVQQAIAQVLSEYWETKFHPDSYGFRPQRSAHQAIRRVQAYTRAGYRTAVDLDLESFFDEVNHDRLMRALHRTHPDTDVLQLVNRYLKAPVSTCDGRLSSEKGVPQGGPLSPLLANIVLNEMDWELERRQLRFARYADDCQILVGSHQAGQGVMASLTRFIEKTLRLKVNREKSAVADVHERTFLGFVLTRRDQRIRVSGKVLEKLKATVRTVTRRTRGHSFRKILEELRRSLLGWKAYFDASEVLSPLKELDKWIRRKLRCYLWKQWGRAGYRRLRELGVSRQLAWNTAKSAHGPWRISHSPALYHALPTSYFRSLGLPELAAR

Measured: activity (fold over background)

Chain of MG167-5 RT (uncultivated organism (metagenomic)) (chain, as listed by the source): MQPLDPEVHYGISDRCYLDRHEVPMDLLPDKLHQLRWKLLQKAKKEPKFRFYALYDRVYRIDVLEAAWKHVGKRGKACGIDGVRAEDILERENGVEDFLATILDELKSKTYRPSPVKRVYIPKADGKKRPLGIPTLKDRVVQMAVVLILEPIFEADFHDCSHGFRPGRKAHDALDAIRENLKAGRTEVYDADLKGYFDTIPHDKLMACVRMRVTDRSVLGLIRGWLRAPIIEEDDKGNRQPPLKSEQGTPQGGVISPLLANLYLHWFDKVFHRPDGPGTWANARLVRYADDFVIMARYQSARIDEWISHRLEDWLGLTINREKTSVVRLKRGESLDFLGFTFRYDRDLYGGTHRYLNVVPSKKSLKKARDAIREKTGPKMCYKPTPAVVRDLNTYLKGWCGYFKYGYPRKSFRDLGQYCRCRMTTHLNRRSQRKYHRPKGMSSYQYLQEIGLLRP

200 nt RNA template annealed to DNA primer
> 10: all assays above
